Values quoted from earlier work in patent US20050019270A1, “Formulation of powder containing nanoparticles for aerosol delivery to the lungs” (priority 2003, published 2005).

Settings: spray drying with polysorbate 20 added

Substance: recombinant human growth hormone: Protein in a prior spray drying study with polysorbate 20
- surface aggregation: < 2%
